The supplement of paper PMC7125110
± gives the standard error. Fewer inactive variants are shown than the library holds.

B1: glmS ribozyme (parent)
chain: AUAAAAGCGCCAGAACUACAGAAAUGUAGUUGACGAGGAGGAGGUUUAUCGAAUUUUCGGCGGAUGCCUCCAAA

Assays:
Conditions in all cases: with glucosamine-6-phosphate
glucosamine-6-phosphate [1] = variants of: B1; assay: self-cleavage kobs at 640 uM GlcN6P; higher = faster cleavage; RNA array
Method in brief: (§1)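 Barcoded ribozyme variants on sequenced MiSeq chips were transcribed in situ by E. coli RNA polymerase and followed at 37 °C through a hybridised Cy3 probe. Glucosamine-6-phosphate at 40 μM to 10 mM in HEPES/KCl/Mg(OAc)2 buffer was flowed in, and tiles were imaged over ~14 h. Signals were normalised to baseline and to non-cleaving reference variants, and per-tile medians were fit to one- or two-exponential decays to give kobs. Weighted Michaelis–Menten fits across concentrations gave kcat and KM.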

glucosamine-6-phosphate [2] = variants of: B1; assay: self-cleavage kobs at 2500 uM GlcN6P; higher = faster cleavage; RNA array
Method in brief: as §1

glucosamine-6-phosphate [3] = variants of: B1; assay: self-cleavage kobs at 10000 uM GlcN6P; higher = faster cleavage; RNA array
Method in brief: as §1

| Variant | self-cleavage kobs at 640 uM GlcN6P (glucosamine-6-phosphate [1]) [s⁻¹] | self-cleavage kobs at 2500 uM GlcN6P (glucosamine-6-phosphate [2]) [s⁻¹] | self-cleavage kobs at 10000 uM GlcN6P (glucosamine-6-phosphate [3]) [s⁻¹] |
| --- | --- | --- | --- |
| C10U A52C C58G | < 1e-05 | < 1e-05 | – |
| C10G C16A A53U G66U U69A | 5.56e-05 ± 2.7e-05 | 4.65e-05 ± 2e-05 | – |
| C8U U56G G63A | < 1e-05 | – | – |
| G9A C10U C68A | < 1e-05 | – | – |
| C10U A14U C16U C68G | 0.00169 ± 0.00051 | 0.000319 ± 0.00011 | – |
| G9A U57A | < 1e-05 | < 1e-05 | – |
| C11A A33U A52G C68G | 0.000157 ± 6.4e-05 | – | – |
| C10U A39U G62A | < 1e-05 | – | – |
| C10U C16U A39U G60U C67G U69G | < 1e-05 | < 1e-05 | – |
| C10G U54A C58G G62C C67G | 6.44e-05 ± 2.7e-05 | 6.02e-05 ± 2.4e-05 | – |
| G9C C50G G60C C70A | 0.000151 ± 4.9e-05 | 0.000123 ± 3.7e-05 | – |
| G9U C10U G38U G44C U49C | < 1e-05 | – | – |
| C10A G38A G40U C50G G51U | < 1e-05 | < 1e-05 | – |
| C11G A14G G41A G43C | < 1e-05 | < 1e-05 | – |
| G9U C34A G59U G63A | < 1e-05 | < 1e-05 | – |
| C10G A33C G37A G59U | < 1e-05 | < 1e-05 | – |
| C10A U46C U54G | < 1e-05 | – | – |
| C11A U30C G38U | < 1e-05 | < 1e-05 | – |
| C10A C67U C68U | 0.000489 ± 0.00014 | – | – |
| C10A G13C C61G G66A C70A | 0.000102 ± 4.5e-05 | – | – |
| C11A G38U U47A | < 1e-05 | – | – |
| C11G A15C G32U A33C C50U C71A | 0.000149 ± 4e-05 | – | – |

| Variant | self-cleavage kobs at 640 uM GlcN6P (glucosamine-6-phosphate [1]) [s⁻¹] | self-cleavage kobs at 2500 uM GlcN6P (glucosamine-6-phosphate [2]) [s⁻¹] | self-cleavage kobs at 10000 uM GlcN6P (glucosamine-6-phosphate [3]) [s⁻¹] |
| --- | --- | --- | --- |
| G9A G44C A53G U57A | < 1e-05 | < 1e-05 | < 1e-05 |
| C11A G37A C50U G59A C67U U69G | 6.37e-05 ± 2.7e-05 | – | – |
| C10A U46C U47A G59A | < 1e-05 | < 1e-05 | – |
| C10G C11U G41A C70U | < 1e-05 | – | – |
| G9U G59C G63C C70U | < 1e-05 | – | – |
| G9C G40C U49G | < 1e-05 | – | < 1e-05 |
| C10A A14C A64U | < 1e-05 | < 1e-05 | – |
| G9A C50U | < 1e-05 | < 1e-05 | < 1e-05 |
| C11A A42C U46C C71U | < 1e-05 | – | – |
| C10U C16A A52U | < 1e-05 | – | – |
| C10U A39U A52U C58G C71U | < 1e-05 | < 1e-05 | – |
| C11A U30G U65C | < 1e-05 | < 1e-05 | – |
| G9U C10G C11A | < 1e-05 | – | – |
| G9U A36C A39G C70U | < 1e-05 | – | – |
| G9U U54C | < 1e-05 | – | – |
| G9C G32U C50U | < 1e-05 | – | – |
| C10U G63C U65G C70A C71A | 0.000118 ± 4.2e-05 | – | < 1e-05 |
| C10G U30C C68G | 9.65e-05 ± 3.5e-05 | – | – |
| C10G C11G G32C G59C C67G | < 1e-05 | – | – |
| C11A G44A C68A | < 1e-05 | < 1e-05 | – |
| C10U A33G G40U | < 1e-05 | – | – |
| C10U A12U G29C G41U C70U | < 1e-05 | < 1e-05 | – |

| Variant | self-cleavage kobs at 640 uM GlcN6P (glucosamine-6-phosphate [1]) [s⁻¹] | self-cleavage kobs at 2500 uM GlcN6P (glucosamine-6-phosphate [2]) [s⁻¹] | self-cleavage kobs at 10000 uM GlcN6P (glucosamine-6-phosphate [3]) [s⁻¹] |
| --- | --- | --- | --- |
| G9C G38U U45C | < 1e-05 | – | – |
| G9A G35A A48C C50G | < 1e-05 | < 1e-05 | – |
| G9C C67G C68U | < 1e-05 | < 1e-05 | – |
| G9U U47G | < 1e-05 | – | < 1e-05 |
| C11G A36C G38U C50A U65G | < 1e-05 | < 1e-05 | < 1e-05 |
| C10G A15C A36U | < 1e-05 | – | – |
| C10A A12U C67G | 8.71e-05 ± 3.5e-05 | – | – |
| C10U C16U G32A C50G | 0.000327 ± 0.00015 | 9.98e-05 ± 3.8e-05 | – |
| C10A C61G C67G | 0.00401 ± 0.0011 | – | – |
| C8U G43A C58G | < 1e-05 | < 1e-05 | – |
| C11A G13U U31A G32A U47G | < 1e-05 | – | – |
| G9A G37C U54G G60U C68U | < 1e-05 | < 1e-05 | – |
| C10G G40U C71U | < 1e-05 | < 1e-05 | – |
| C11A A33G A48C C67U | < 1e-05 | < 1e-05 | – |
| C10G G60U G63U | < 1e-05 | – | – |
| C11G A14U A52U C68G | 0.000115 ± 3.6e-05 | – | – |
| G9U C34U A39G | < 1e-05 | – | – |
| C8U U30G U55C | < 1e-05 | < 1e-05 | – |
| G9A G13C U57C | < 1e-05 | < 1e-05 | – |
| G9C A39G G40U | < 1e-05 | < 1e-05 | < 1e-05 |
| C10G C68G C71U | 3.95e-05 ± 1.7e-05 | – | – |
| G9U G29C U54G U69A | < 1e-05 | < 1e-05 | – |
